Reference: PMC8237747 (Journal for Immunotherapy of Cancer, 2021)

B1: cyno 4-1BB overexpressed on CHO cells (receptor)
chain: LQDLCSNCPAGTFCDNNRSQICSPCPPNSFSSAGGQRTCDICRQCKGVFKTRKECSSTSNAECDCISGYHCLGAECSMCEQDCKQGQELTKKGCKDCCFGTFNDQKRGICRPWTNCSLDGKSVLVNGTKERDVVCGPSPADLSPGASSATPPAPAREPGHSPQIIFFLALTSTVVLFLLFFLVLRFSVVKRSRKKLLYIFKQPFMRPVQTTQEEDGCSCRFPEEEEGGCEL

Assays:
[1] = biological target: HZ-L-Yr-16-Fc; assay: flow cytometry on cells
[2] = biological target: B1; assay: flow cytometry on cells
[3] = biological target: HZ-L-Yr-16-Fc; assay: ELISA

Question: Does B1 bind [1]?
Answer: Result: binds

B2: Urelumab (antibody, V domains shown)
VH: QVQLQQWGAGLLKPSETLSLTCAVYGGSFSGYYWSWIRQSPEKGLEWIGEINHGGYVTYNPSLESRVTISVDTSKNQFSLKLSSVTAADTAVYYCARDYGPGNYDWYFDLWGRGTLVTVSS
VL: EIVLTQSPATLSLSPGERATLSCRASQSVSSYLAWYQQKPGQAPRLLIYDASNRATGIPARFSGSGSGTDFTLTISSLEPEDFAVYYCQQRSNWPPALTFGGGTKVEIK
Question: Does B2 bind [2]?
Answer: Result: no binding

B3: Human GITR (receptor)
chain: QRPTGGPGCGPGRLLLGTGTDARCCRVHTTRCCRDYPGEECCSEWDCMCVQPEFHCGDPCCTTCRHHPCPPGQGVQSQGKFSFGFQCIDCASGTFSGGHEGHCKPWTDCTQFGFLTVFPGNKTHNAVCVPGSPPAEP
Question: Does B3 bind [3]?
Answer: Result: no binding

B4: Human OX40 (receptor)
chain: LHCVGDTYPSNDRCCHECRPGNGMVSRCSRSQNTVCRPCGPGFYNDVVSSKPCKPCTWCNLRSGSERKQLCTATQDTVCRCRAGTQPLDSYKPGVDCAPCPPGHFSPGDNQACKPWTNCTLAGKHTLQPASNSSDAICEDRDPPATQPQETQGPPARPITVQPTEAWPRTSQGPSTRPVEVPGGRA
Question: Does B4 bind [3]?
Answer: Result: no binding
